According to patent US20210403591A1 (OSSIANIX, published 2021):
Changes are numbered by the printed parent chain.

B1: 8D3 antibody (anti-mouse TfR-1 control; 8D3-hFc formatted antibody) (antibody, V domains shown)
VH: EVQLVESGGGLVQPGNSLTLSCVASGFTFSNYGMHWIRQAPKKGLEWIAMIYYDSSKMNYADTVKGRFTISRDNSKNTLYLEMNSLRSEDTAMYYCAVPTSHYVVDVWGQGVSVTVSS
VL: DIQMTQSPASLSASLEEIVTITCQASQDIGNWLAWYQQKPGKSPQLLIYGATSLADGVPSRFSGSRSGTQFSLKISRVQVEDIGIYYCLQAYNTPWTFGGGTKLELK
B2: Clone C VNAR-hFc fusion (Fc fusion, not shown: a dimerising Fc or GST)
chain: ARVDQTPQTITKETGESLTINCVLRDSNCALSSTYWYRKKSGSTNEENISKGGRYVETVNSGSKSFSLRINDLTVEDSGTYRCNVVQYPSYNNYFWCDVYGDGTAVTVN
notes: bivalent VNAR-Fc; also called Clone C-hFc
B3: Clone C variant 18 VNAR-hFc (Fc fusion, not shown: a dimerising Fc or GST)
chain: B2 chain with S90Q, N92P
notes: also called Clone C v18; Clone C var; 18
B4: Clone C variant 13 VNAR-hFc (Fc fusion, not shown: a dimerising Fc or GST)
chain: B2 chain with S90Q, Y91Q, N92D
notes: also called Clone C v13; Clone C var; 13

target: T1, mTfR-1 P227A on Expi293 cells (mouse, UniProt Q62351 1-763); assay: FACS, transfected Expi293 cells
T1 construct: whole, on cells
T1 sequence (Q62351 whole entry P227A): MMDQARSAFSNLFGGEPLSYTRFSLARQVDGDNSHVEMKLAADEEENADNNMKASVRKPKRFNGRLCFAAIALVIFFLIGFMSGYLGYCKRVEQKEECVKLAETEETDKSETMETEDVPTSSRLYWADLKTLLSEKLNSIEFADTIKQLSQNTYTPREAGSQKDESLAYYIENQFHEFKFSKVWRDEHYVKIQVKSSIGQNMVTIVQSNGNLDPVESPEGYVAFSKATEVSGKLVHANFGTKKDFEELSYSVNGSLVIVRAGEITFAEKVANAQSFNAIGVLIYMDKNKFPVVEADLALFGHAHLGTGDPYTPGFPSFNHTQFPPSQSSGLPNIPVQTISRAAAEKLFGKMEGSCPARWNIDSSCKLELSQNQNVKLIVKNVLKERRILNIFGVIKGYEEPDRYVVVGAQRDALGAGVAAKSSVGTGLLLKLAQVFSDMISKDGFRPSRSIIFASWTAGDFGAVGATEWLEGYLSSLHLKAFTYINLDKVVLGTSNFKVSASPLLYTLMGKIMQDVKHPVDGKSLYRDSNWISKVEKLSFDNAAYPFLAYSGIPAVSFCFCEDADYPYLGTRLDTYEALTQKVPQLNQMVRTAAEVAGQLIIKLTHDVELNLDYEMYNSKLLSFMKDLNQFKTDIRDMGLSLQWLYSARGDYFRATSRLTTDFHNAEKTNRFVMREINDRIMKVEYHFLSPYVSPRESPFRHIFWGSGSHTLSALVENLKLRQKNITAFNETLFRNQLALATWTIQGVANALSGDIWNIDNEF
Experimental: (§1) Transfected Expi293 cells were harvested and 2×10⁵ cells were transferred into V-bottom 96-well plate for staining. The cells were blocked in PBS containing 1% BSA (FACS buffer) for 10 min on ice, centrifuged to remove the buffer and 1 μl of 8D3-hFc formatted antibody, Clone C-hFc or Clone C variants 18 and 13 (Table 1), all at 1 mg/ml, was added to the wells. The cells were co-stained with mouse Tf-Alexa647 (Jackson ImmunoResearch). After 30 minutes on ice, the cells were washed and incubated with anti-hFc-PE (eBioscience) for 20 minutes on ice, washed again and resuspended in […] of FACS buffer containing 5 μl of propidium iodide (PI) to exclude dead cells from the analysis. The percentage of double-positive cells that stained with mTf and the tested antibody was determined on a CytoFlex cytometer (Beckman Coulter). The percentage of cells in the double positive quadrant (Q2) for WT mTfR-1 was used for normalization.

Row | % double-positive cells vs WT | Binder
1 | 63% | B1
2 | 77% | B2
3 | 20% | B3
4 | 47% | B4

target: T2, mTfR-1 K380A on Expi293 cells (mouse, UniProt Q62351 1-763); assay: FACS, transfected Expi293 cells
T2 construct: whole, on cells
T2 sequence (Q62351 whole entry K380A): as the sequence (Q62351 whole entry P227A) above, with A227P, K380A counted along it
Experimental: as §1

Row | % double-positive cells vs WT | Binder
5 | 66% | B1
6 | 193% | B2
7 | 162% | B3
8 | 81% | B4

target: T3, mTfR-1 S196A on Expi293 cells (mouse, UniProt Q62351 1-763); assay: FACS, transfected Expi293 cells
T3 construct: whole, on cells
T3 sequence (Q62351 whole entry S196A): as the sequence (Q62351 whole entry P227A) above, with S196A, A227P counted along it
Experimental: as §1

Row | % double-positive cells vs WT | Binder
9 | 74% | B1
10 | 123% | B2
11 | 104% | B3
12 | 47% | B4

target: T4, mTfR-1 S275A on Expi293 cells (mouse, UniProt Q62351 1-763); assay: FACS, transfected Expi293 cells
T4 construct: whole, on cells
T4 sequence (Q62351 whole entry S275A): as the sequence (Q62351 whole entry P227A) above, with A227P, S275A counted along it
Experimental: as §1

Row | % double-positive cells vs WT | Binder
13 | 70% | B1
14 | 97% | B2
15 | 136% | B3
16 | 54% | B4

target: T5, WT mTfR-1 expressed on Expi293 cells (mouse, UniProt Q62351 1-763); assay: FACS, transfected Expi293 cells
T5 construct: whole, on cells
T5 sequence (Q62351 whole entry): as the sequence (Q62351 whole entry P227A) above, with A227P counted along it
Experimental: as §1

Row | % double-positive cells vs WT | Binder
17 | 100% | B1
18 | 100% | B2
19 | 100% | B3
20 | 100% | B4

target: T6, mTfR-1 G254A on Expi293 cells (mouse, UniProt Q62351 1-763); assay: FACS, transfected Expi293 cells
T6 construct: whole, on cells
T6 sequence (Q62351 whole entry G254A): as the sequence (Q62351 whole entry P227A) above, with A227P, G254A counted along it
Experimental: as §1

Row | % double-positive cells vs WT | Binder
21 | 58% | B1
22 | 35% | B2
23 | 32% | B3
24 | 22% | B4

target: T7, mTfR-1 T228A on Expi293 cells (mouse, UniProt Q62351 1-763); assay: FACS, transfected Expi293 cells
T7 construct: whole, on cells
T7 sequence (Q62351 whole entry T228A): as the sequence (Q62351 whole entry P227A) above, with A227P, T228A counted along it
Experimental: as §1

Row | % double-positive cells vs WT | Binder
25 | 89% | B1
26 | 68% | B2
27 | 45% | B3
28 | 65% | B4

target: T8, mTfR-1 G199A on Expi293 cells (mouse, UniProt Q62351 1-763); assay: FACS, transfected Expi293 cells
T8 construct: whole, on cells
T8 sequence (Q62351 whole entry G199A): as the sequence (Q62351 whole entry P227A) above, with G199A, A227P counted along it
Experimental: as §1

Row | % double-positive cells vs WT | Binder
29 | 69% | B1
30 | 72% | B2
31 | 42% | B3
32 | 36% | B4

target: T9, mTfR-1 P335A on Expi293 cells (mouse, UniProt Q62351 1-763); assay: FACS, transfected Expi293 cells
T9 construct: whole, on cells
T9 sequence (Q62351 whole entry P335A): as the sequence (Q62351 whole entry P227A) above, with A227P, P335A counted along it
Experimental: as §1

Row | % double-positive cells vs WT | Binder
33 | 94% | B1
34 | 169% | B2
35 | 138% | B3
36 | 75% | B4

target: T10, mTfR-1 N277A on Expi293 cells (mouse, UniProt Q62351 1-763); assay: FACS, transfected Expi293 cells
T10 construct: whole, on cells
T10 sequence (Q62351 whole entry N277A): as the sequence (Q62351 whole entry P227A) above, with A227P, N277A counted along it
Experimental: as §1

Row | % double-positive cells vs WT | Binder
37 | 56% | B1
38 | 137% | B2
39 | 155% | B3
40 | 84% | B4

target: T11, mTfR-1 I279A on Expi293 cells (mouse, UniProt Q62351 1-763); assay: FACS, transfected Expi293 cells
T11 construct: whole, on cells
T11 sequence (Q62351 whole entry I279A): as the sequence (Q62351 whole entry P227A) above, with A227P, I279A counted along it
Experimental: as §1

Row | % double-positive cells vs WT | Binder
41 | 74% | B1
42 | 177% | B2
43 | 206% | B3
44 | 85% | B4

target: T12, mTfR-1 K191A on Expi293 cells (mouse, UniProt Q62351 1-763); assay: FACS, transfected Expi293 cells
T12 construct: whole, on cells
T12 sequence (Q62351 whole entry K191A): as the sequence (Q62351 whole entry P227A) above, with K191A, A227P counted along it
Experimental: as §1

Row | % double-positive cells vs WT | Binder
45 | 91% | B1
46 | 51% | B2
47 | 25% | B3

target: T13, recombinant human TfR-1, His-tagged (Sino Biological 11020-H07H) (human, UniProt P02786 89-760); assay: SPR, His-captured TfR1
T13 construct: bought; His-tagged; also called hTfR1; hTfR-1
T13 sequence (P02786 89-760 limits assumed): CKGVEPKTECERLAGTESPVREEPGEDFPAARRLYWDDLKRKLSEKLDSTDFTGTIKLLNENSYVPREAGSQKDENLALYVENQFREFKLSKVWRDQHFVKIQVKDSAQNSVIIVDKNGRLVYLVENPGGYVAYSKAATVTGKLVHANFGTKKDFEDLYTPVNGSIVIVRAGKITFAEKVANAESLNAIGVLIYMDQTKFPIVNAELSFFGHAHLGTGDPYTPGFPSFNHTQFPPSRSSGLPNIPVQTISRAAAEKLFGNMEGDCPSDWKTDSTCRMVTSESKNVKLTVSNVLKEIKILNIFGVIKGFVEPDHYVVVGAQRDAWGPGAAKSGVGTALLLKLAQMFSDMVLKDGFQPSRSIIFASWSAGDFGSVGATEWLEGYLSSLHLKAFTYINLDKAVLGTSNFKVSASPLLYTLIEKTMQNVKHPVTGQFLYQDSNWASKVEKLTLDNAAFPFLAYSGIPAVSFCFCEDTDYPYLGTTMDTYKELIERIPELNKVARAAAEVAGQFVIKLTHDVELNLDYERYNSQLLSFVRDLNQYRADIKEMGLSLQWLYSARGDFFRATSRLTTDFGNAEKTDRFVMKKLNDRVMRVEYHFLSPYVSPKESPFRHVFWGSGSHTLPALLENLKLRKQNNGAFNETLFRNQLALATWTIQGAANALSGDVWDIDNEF
Experimental: (§2) Detailed binding kinetic analyses were performed to gain a better understanding of the relationship between affinity and brain penetration of the Clone C variants. Biacore surface plasmon resonance (SPR) analysis using immobilised mouse and human TfR-1 was performed for selected clones (Table 2).
(§3) Binding kinetics of VNAR-Fcs was determined by surface plasmon resonance (Biacore T200, GE Healthcare). CMS chips were coated with anti-His antibodies (His Capture Kit, GE Healthcare) as recommended by the manufacturer and human or mouse his-tagged TfR1 (SinoBiological) at 10 ug/mL in HBS-EP+ (GE Healthcare) was captured at flow rate 10 ul/min (contact time 120 s). […] A flow cell without TfR1 captured served as a reference. Sensorgrams were fitted and kinetic constants were determined using Biacore T200 Evaluation software. Chips were regenerated in 10 mM Glycine-HCl, pH 1.5 (contact time: 120 s at flow rate 30 ul/min).

Row | Kd | koff | kon | Binder
48 | 0.604 nM | 0.000145 s⁻¹ | 240000 M⁻¹ s⁻¹ | B2
49 | 0.314 nM | 0.000113 s⁻¹ | 360000 M⁻¹ s⁻¹ | B3
50 | 0.574 nM | 0.00017 s⁻¹ | 297000 M⁻¹ s⁻¹ | B4

target: T14, recombinant mouse TfR-1, His-tagged (Sino Biological 50741-M07H) (mouse, UniProt Q62351 89-763); assay: SPR, His-captured TfR1
T14 construct: bought; His-tagged; also called mTfR1; mTfR-1
T14 sequence (Q62351 89-763 limits assumed, stated change not applied): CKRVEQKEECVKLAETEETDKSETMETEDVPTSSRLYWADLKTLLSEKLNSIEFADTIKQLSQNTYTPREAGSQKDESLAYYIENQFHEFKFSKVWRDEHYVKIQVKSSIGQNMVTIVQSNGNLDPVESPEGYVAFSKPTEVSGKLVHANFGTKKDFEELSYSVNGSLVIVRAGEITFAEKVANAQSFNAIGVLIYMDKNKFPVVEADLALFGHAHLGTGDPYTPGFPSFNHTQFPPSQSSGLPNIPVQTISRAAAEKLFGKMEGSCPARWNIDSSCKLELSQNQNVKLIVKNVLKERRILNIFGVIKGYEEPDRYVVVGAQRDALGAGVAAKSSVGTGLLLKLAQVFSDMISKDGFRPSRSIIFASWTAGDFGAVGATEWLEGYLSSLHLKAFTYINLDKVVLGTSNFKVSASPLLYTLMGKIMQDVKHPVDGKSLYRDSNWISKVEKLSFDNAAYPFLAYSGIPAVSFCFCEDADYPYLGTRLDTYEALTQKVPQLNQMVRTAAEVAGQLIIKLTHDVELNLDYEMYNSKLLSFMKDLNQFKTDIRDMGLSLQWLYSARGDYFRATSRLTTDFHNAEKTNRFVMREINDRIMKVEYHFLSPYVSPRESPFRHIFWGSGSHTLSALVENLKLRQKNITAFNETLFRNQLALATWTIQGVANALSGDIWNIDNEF
Experimental: as §2, §3

Row | Kd | koff | kon | Binder
51 | 0.892 nM | 0.000191 s⁻¹ | 214000 M⁻¹ s⁻¹ | B2
52 | 0.863 nM | 0.000269 s⁻¹ | 312000 M⁻¹ s⁻¹ | B3
53 | 0.165 nM | 4.09e-05 s⁻¹ | 248000 M⁻¹ s⁻¹ | B4

target: T15, mTfR-1 I334A on Expi293 cells (mouse, UniProt Q62351 1-763); assay: FACS, transfected Expi293 cells; mutant poorly expressed
T15 construct: whole, on cells
T15 sequence (Q62351 whole entry I334A): as the sequence (Q62351 whole entry P227A) above, with A227P, I334A counted along it
Experimental: as §1

Row | % double-positive cells vs WT | Binder
54 | 0% | B1
55 | 0% | B2
56 | 0% | B3
57 | 0% | B4

target: T16, mTfR-1 I192A on Expi293 cells (mouse, UniProt Q62351 1-763); assay: as above
T16 construct: whole, on cells; also called 1192A
T16 sequence (Q62351 whole entry I192A): as the sequence (Q62351 whole entry P227A) above, with I192A, A227P counted along it
Experimental: as §1

Row | % double-positive cells vs WT | Binder
58 | 13% | B1
59 | 61% | B2
60 | 18% | B3

target: T17, mTfR-1 A278T on Expi293 cells (mouse, UniProt Q62351 1-763); assay: as above
T17 construct: whole, on cells
T17 sequence (Q62351 whole entry A278T): as the sequence (Q62351 whole entry P227A) above, with A227P, A278T counted along it
Experimental: as §1

Row | % double-positive cells vs WT | Binder
61 | 45% | B1
62 | 25% | B2
63 | 21% | B3
64 | 12% | B4

target: T18, mTfR-1 L331A on Expi293 cells (mouse, UniProt Q62351 1-763); assay: as above
T18 construct: whole, on cells
T18 sequence (Q62351 whole entry L331A): as the sequence (Q62351 whole entry P227A) above, with A227P, L331A counted along it
Experimental: as §1

Row | % double-positive cells vs WT | Binder
65 | 0% | B1
66 | 0% | B2
67 | 0% | B3
68 | 0% | B4

target: T19, mTfR-1 N201A on Expi293 cells (mouse, UniProt Q62351 1-763); assay: as above
T19 construct: whole, on cells
T19 sequence (Q62351 whole entry N201A): as the sequence (Q62351 whole entry P227A) above, with N201A, A227P counted along it
Experimental: as §1

Row | % double-positive cells vs WT | Binder
69 | 1% | B1
70 | 0% | B2
71 | 0% | B3
72 | 0% | B4

target: T20, mTfR-1 F224A on Expi293 cells (mouse, UniProt Q62351 1-763); assay: as above
T20 construct: whole, on cells
T20 sequence (Q62351 whole entry F224A): as the sequence (Q62351 whole entry P227A) above, with F224A, A227P counted along it
Experimental: as §1

Row | % double-positive cells vs WT | Binder
73 | 0% | B1
74 | 0% | B2
75 | 0% | B3
76 | 0% | B4

target: T21, mTfR-1 L256A on Expi293 cells (mouse, UniProt Q62351 1-763); assay: as above
T21 construct: whole, on cells
T21 sequence (Q62351 whole entry L256A): as the sequence (Q62351 whole entry P227A) above, with A227P, L256A counted along it
Experimental: as §1

Row | % double-positive cells vs WT | Binder
77 | 13% | B1
78 | 0% | B3
79 | 0% | B4

target: T22, mTfR-1 N381A on Expi293 cells (mouse, UniProt Q62351 1-763); assay: as above
T22 construct: whole, on cells
T22 sequence (Q62351 whole entry N381A): as the sequence (Q62351 whole entry P227A) above, with A227P, N381A counted along it
Experimental: as §1

Row | % double-positive cells vs WT | Binder
80 | 26% | B1
81 | 32% | B2
82 | 0% | B3
83 | 11% | B4

target: T23, mTfR-1 V379A on Expi293 cells (mouse, UniProt Q62351 1-763); assay: as above
T23 construct: whole, on cells
T23 sequence (Q62351 whole entry V379A): as the sequence (Q62351 whole entry P227A) above, with A227P, V379A counted along it
Experimental: as §1

Row | % double-positive cells vs WT | Binder
84 | 0% | B1
85 | 0% | B2
86 | 0% | B3
87 | 0% | B4
